From publication PMC9046087, “Structural basis of tethered agonism of the adhesion GPCRs ADGRD1 and ADGRF1” (Nature, 2022)

Tested on: ADGRF1
Assay: Cell-surface expression by flow cytometry, ADGRF1
Assay type: cell-based, human
Conditions: ADGRF1 constructs (pF1 Gi part of table), anti-Flag antibody, three independent measurements in duplicate
Description: The wild-type ADGRD1 and ADGRF1 and mutants used in functional studies were constructed into a pTT5 vector with a Flag tag at the N terminus for receptor expression measurement. The basal activity of ADGRD1 and ADGRF1 in mediating Gs signalling was measured by a cAMP accumulation assay using a LANCE Ultra cAMP detection kit (PerkinElmer) following the manufacturer’s instruction. In brief, 2 ml HEK293F cells (Invitrogen; cells were routinely tested for mycoplasma contamination) at a density of 1.2 × 10^6 cells per ml were transiently transfected with 2,000 ng plasmid of the wild-type or mutant receptor and cultured at 37 °C for 48 h with 5% CO2 atmosphere in a shaker shaking at 220 rpm. After collection, the cell-surface expression of the receptors was measured by incubating 10 μl cells with 15 μl monoclonal anti-Flag M2-FITC antibody (Sigma; 1:120 diluted in TBS supplemented with 4% BSA and 20% viability staining solution 7-AAD (Invitrogen)) at 4 °C for 20 min. After incubation, 175 μl TBS buffer was added and the fluorescent signal was measured using a flow cytometry reader (Guava easyCyte HT, Millipore).

| Molecule | Cell-surface expression (% of WT) |
| --- | --- |
| V585^1.36bA (protein, UniProt Q5T601 20-910, looked up, variant V585A) Adhesion G-protein coupled …: GFLGKNDGIKTKKELIVNKKKHLGPVEEYQLLLQVTYRDSKEKRDLRNFLKLLKPPLLWSHGLIRIIRAKATTDCNSLNGVLQCTCEDSYTWFPPSCLDPQNCYLHTAGALPSCECHLNNLSQSVNFCERTKIWGTFKINERFTNDLLNSSSAIYSKYANGIEIQLKKAYERIQGFESVQVTQFRNGSIVAGYEVVGSSSASELLSAIEHVAEKAKTALHKLFPLEDGSFRVFGKAQCNDIVFGFGSKDDEYTLPCSSGYRGNITAKCESSGWQVIRETCVLSLLEELNKNFSMIVGNATEAAVSSFVQNLSVIIRQNPSTTVGNLASVVSILSNISSLSLASHFRVSNSTMEDVISIADNILNSASVTNWTVLLREEKYASSRLLETLENISTLVPPTALPLNFSRKFIDWKGIPVNKSQLKRGYSYQIKMCPQNTSIPIRGRVLIGSDQFQRSLPETIISMASLTLGNILPVSKNGNAQVNGPVISTVIQNYSINEVFLFFSKIESNLSQPHCVFWDFSHLQWNDAGCHLVNETQDIVTCQCTHLTSFSILMSPFVPSTIFPVAKWITYVGLGISIGSLILCLIIEALFWKQIKKSQTSHTRRICMVNIALSLLIADVWFIVGATVDTTVNPSGVCTAAVFFTHFFYLSLFFWMLMLGILLAYRIILVFHHMAQHLMMAVGFCLGYGCPLIISVITIAVTQPSNTYKRKDVCWLNWSNGSKPLLAFVVPALAIVAVNFVVVLLVLTKLWRPTVGERLSRDDKATIIRVGKSLLILTPLLGLTWGFGIGTIVDSQNLAWHVIFALLNAFQGFFILCFGILLDSKLRQLLFNKLSALSSWKQTEKQNSSDLSAKPKFSKPFNPLQNKGHYAFSHTGDSSDNIMLTQFVSNE | 91 ± 21 % of WT |
| T589^1.40bA (protein, UniProt Q5T601 20-910, looked up, variant T589A) Adhesion G-protein coupled …: GFLGKNDGIKTKKELIVNKKKHLGPVEEYQLLLQVTYRDSKEKRDLRNFLKLLKPPLLWSHGLIRIIRAKATTDCNSLNGVLQCTCEDSYTWFPPSCLDPQNCYLHTAGALPSCECHLNNLSQSVNFCERTKIWGTFKINERFTNDLLNSSSAIYSKYANGIEIQLKKAYERIQGFESVQVTQFRNGSIVAGYEVVGSSSASELLSAIEHVAEKAKTALHKLFPLEDGSFRVFGKAQCNDIVFGFGSKDDEYTLPCSSGYRGNITAKCESSGWQVIRETCVLSLLEELNKNFSMIVGNATEAAVSSFVQNLSVIIRQNPSTTVGNLASVVSILSNISSLSLASHFRVSNSTMEDVISIADNILNSASVTNWTVLLREEKYASSRLLETLENISTLVPPTALPLNFSRKFIDWKGIPVNKSQLKRGYSYQIKMCPQNTSIPIRGRVLIGSDQFQRSLPETIISMASLTLGNILPVSKNGNAQVNGPVISTVIQNYSINEVFLFFSKIESNLSQPHCVFWDFSHLQWNDAGCHLVNETQDIVTCQCTHLTSFSILMSPFVPSTIFPVVKWIAYVGLGISIGSLILCLIIEALFWKQIKKSQTSHTRRICMVNIALSLLIADVWFIVGATVDTTVNPSGVCTAAVFFTHFFYLSLFFWMLMLGILLAYRIILVFHHMAQHLMMAVGFCLGYGCPLIISVITIAVTQPSNTYKRKDVCWLNWSNGSKPLLAFVVPALAIVAVNFVVVLLVLTKLWRPTVGERLSRDDKATIIRVGKSLLILTPLLGLTWGFGIGTIVDSQNLAWHVIFALLNAFQGFFILCFGILLDSKLRQLLFNKLSALSSWKQTEKQNSSDLSAKPKFSKPFNPLQNKGHYAFSHTGDSSDNIMLTQFVSNE | 83 ± 3 % of WT |
| F641^2.64bA (protein, UniProt Q5T601 20-910, looked up, variant F641A) Adhesion G-protein coupled …: GFLGKNDGIKTKKELIVNKKKHLGPVEEYQLLLQVTYRDSKEKRDLRNFLKLLKPPLLWSHGLIRIIRAKATTDCNSLNGVLQCTCEDSYTWFPPSCLDPQNCYLHTAGALPSCECHLNNLSQSVNFCERTKIWGTFKINERFTNDLLNSSSAIYSKYANGIEIQLKKAYERIQGFESVQVTQFRNGSIVAGYEVVGSSSASELLSAIEHVAEKAKTALHKLFPLEDGSFRVFGKAQCNDIVFGFGSKDDEYTLPCSSGYRGNITAKCESSGWQVIRETCVLSLLEELNKNFSMIVGNATEAAVSSFVQNLSVIIRQNPSTTVGNLASVVSILSNISSLSLASHFRVSNSTMEDVISIADNILNSASVTNWTVLLREEKYASSRLLETLENISTLVPPTALPLNFSRKFIDWKGIPVNKSQLKRGYSYQIKMCPQNTSIPIRGRVLIGSDQFQRSLPETIISMASLTLGNILPVSKNGNAQVNGPVISTVIQNYSINEVFLFFSKIESNLSQPHCVFWDFSHLQWNDAGCHLVNETQDIVTCQCTHLTSFSILMSPFVPSTIFPVVKWITYVGLGISIGSLILCLIIEALFWKQIKKSQTSHTRRICMVNIALSLLIADVWAIVGATVDTTVNPSGVCTAAVFFTHFFYLSLFFWMLMLGILLAYRIILVFHHMAQHLMMAVGFCLGYGCPLIISVITIAVTQPSNTYKRKDVCWLNWSNGSKPLLAFVVPALAIVAVNFVVVLLVLTKLWRPTVGERLSRDDKATIIRVGKSLLILTPLLGLTWGFGIGTIVDSQNLAWHVIFALLNAFQGFFILCFGILLDSKLRQLLFNKLSALSSWKQTEKQNSSDLSAKPKFSKPFNPLQNKGHYAFSHTGDSSDNIMLTQFVSNE | 82 ± 19 % of WT |
| W734^ECL2A (protein, UniProt Q5T601 20-910, looked up, variant W734A) Adhesion G-protein coupled …: GFLGKNDGIKTKKELIVNKKKHLGPVEEYQLLLQVTYRDSKEKRDLRNFLKLLKPPLLWSHGLIRIIRAKATTDCNSLNGVLQCTCEDSYTWFPPSCLDPQNCYLHTAGALPSCECHLNNLSQSVNFCERTKIWGTFKINERFTNDLLNSSSAIYSKYANGIEIQLKKAYERIQGFESVQVTQFRNGSIVAGYEVVGSSSASELLSAIEHVAEKAKTALHKLFPLEDGSFRVFGKAQCNDIVFGFGSKDDEYTLPCSSGYRGNITAKCESSGWQVIRETCVLSLLEELNKNFSMIVGNATEAAVSSFVQNLSVIIRQNPSTTVGNLASVVSILSNISSLSLASHFRVSNSTMEDVISIADNILNSASVTNWTVLLREEKYASSRLLETLENISTLVPPTALPLNFSRKFIDWKGIPVNKSQLKRGYSYQIKMCPQNTSIPIRGRVLIGSDQFQRSLPETIISMASLTLGNILPVSKNGNAQVNGPVISTVIQNYSINEVFLFFSKIESNLSQPHCVFWDFSHLQWNDAGCHLVNETQDIVTCQCTHLTSFSILMSPFVPSTIFPVVKWITYVGLGISIGSLILCLIIEALFWKQIKKSQTSHTRRICMVNIALSLLIADVWFIVGATVDTTVNPSGVCTAAVFFTHFFYLSLFFWMLMLGILLAYRIILVFHHMAQHLMMAVGFCLGYGCPLIISVITIAVTQPSNTYKRKDVCALNWSNGSKPLLAFVVPALAIVAVNFVVVLLVLTKLWRPTVGERLSRDDKATIIRVGKSLLILTPLLGLTWGFGIGTIVDSQNLAWHVIFALLNAFQGFFILCFGILLDSKLRQLLFNKLSALSSWKQTEKQNSSDLSAKPKFSKPFNPLQNKGHYAFSHTGDSSDNIMLTQFVSNE | 87 ± 1 % of WT |
| L593^1.47bA (protein, UniProt Q5T601 20-910, looked up, variant L593A) Adhesion G-protein coupled …: GFLGKNDGIKTKKELIVNKKKHLGPVEEYQLLLQVTYRDSKEKRDLRNFLKLLKPPLLWSHGLIRIIRAKATTDCNSLNGVLQCTCEDSYTWFPPSCLDPQNCYLHTAGALPSCECHLNNLSQSVNFCERTKIWGTFKINERFTNDLLNSSSAIYSKYANGIEIQLKKAYERIQGFESVQVTQFRNGSIVAGYEVVGSSSASELLSAIEHVAEKAKTALHKLFPLEDGSFRVFGKAQCNDIVFGFGSKDDEYTLPCSSGYRGNITAKCESSGWQVIRETCVLSLLEELNKNFSMIVGNATEAAVSSFVQNLSVIIRQNPSTTVGNLASVVSILSNISSLSLASHFRVSNSTMEDVISIADNILNSASVTNWTVLLREEKYASSRLLETLENISTLVPPTALPLNFSRKFIDWKGIPVNKSQLKRGYSYQIKMCPQNTSIPIRGRVLIGSDQFQRSLPETIISMASLTLGNILPVSKNGNAQVNGPVISTVIQNYSINEVFLFFSKIESNLSQPHCVFWDFSHLQWNDAGCHLVNETQDIVTCQCTHLTSFSILMSPFVPSTIFPVVKWITYVGAGISIGSLILCLIIEALFWKQIKKSQTSHTRRICMVNIALSLLIADVWFIVGATVDTTVNPSGVCTAAVFFTHFFYLSLFFWMLMLGILLAYRIILVFHHMAQHLMMAVGFCLGYGCPLIISVITIAVTQPSNTYKRKDVCWLNWSNGSKPLLAFVVPALAIVAVNFVVVLLVLTKLWRPTVGERLSRDDKATIIRVGKSLLILTPLLGLTWGFGIGTIVDSQNLAWHVIFALLNAFQGFFILCFGILLDSKLRQLLFNKLSALSSWKQTEKQNSSDLSAKPKFSKPFNPLQNKGHYAFSHTGDSSDNIMLTQFVSNE | 90 ± 6 % of WT |
| Y668^3.40bA (protein, UniProt Q5T601 20-910, looked up, variant Y668A) Adhesion G-protein coupled …: GFLGKNDGIKTKKELIVNKKKHLGPVEEYQLLLQVTYRDSKEKRDLRNFLKLLKPPLLWSHGLIRIIRAKATTDCNSLNGVLQCTCEDSYTWFPPSCLDPQNCYLHTAGALPSCECHLNNLSQSVNFCERTKIWGTFKINERFTNDLLNSSSAIYSKYANGIEIQLKKAYERIQGFESVQVTQFRNGSIVAGYEVVGSSSASELLSAIEHVAEKAKTALHKLFPLEDGSFRVFGKAQCNDIVFGFGSKDDEYTLPCSSGYRGNITAKCESSGWQVIRETCVLSLLEELNKNFSMIVGNATEAAVSSFVQNLSVIIRQNPSTTVGNLASVVSILSNISSLSLASHFRVSNSTMEDVISIADNILNSASVTNWTVLLREEKYASSRLLETLENISTLVPPTALPLNFSRKFIDWKGIPVNKSQLKRGYSYQIKMCPQNTSIPIRGRVLIGSDQFQRSLPETIISMASLTLGNILPVSKNGNAQVNGPVISTVIQNYSINEVFLFFSKIESNLSQPHCVFWDFSHLQWNDAGCHLVNETQDIVTCQCTHLTSFSILMSPFVPSTIFPVVKWITYVGLGISIGSLILCLIIEALFWKQIKKSQTSHTRRICMVNIALSLLIADVWFIVGATVDTTVNPSGVCTAAVFFTHFFALSLFFWMLMLGILLAYRIILVFHHMAQHLMMAVGFCLGYGCPLIISVITIAVTQPSNTYKRKDVCWLNWSNGSKPLLAFVVPALAIVAVNFVVVLLVLTKLWRPTVGERLSRDDKATIIRVGKSLLILTPLLGLTWGFGIGTIVDSQNLAWHVIFALLNAFQGFFILCFGILLDSKLRQLLFNKLSALSSWKQTEKQNSSDLSAKPKFSKPFNPLQNKGHYAFSHTGDSSDNIMLTQFVSNE | 67 ± 1 % of WT |
